This note sets out measurements from the DeepSol protein solubility set.

The data set is described as follows: soluble on expression in E. coli; label from the status in PepcDB or PDB records.
As for “MITVVIADRLGKGQNVAKGVEQAGGRAVVVPGMGADMRLGDVMQQEKADLGISFCGSGGAGALTAATKYGYPERHGMRSIEEGVTAINDGKTVLGFGFMDQEELGKRVTEAFIKKHGA”, the “soluble on expression in E. coli” value is “not soluble”.
The result for “MIVFKAENLSVGYNGVKAVSNINFSAKQGEIICLLGPNGAGKTTIIRTLSGLLPPIEGEIHINGKSLSTINKKLLAQTLSVVLTEKPSFDVMTAFDVVSLGRFPHTGFFGTITKEHEIKVVEALKTVGALNLIDKYFHILSDGERQKVMLARALVQEPQIIILDEPTTHLDINHKIELLNTLKNLSRTAKLTVILSLHEIDLALKYCDKVMLVENKKVLSFGSPETTVNGETINKLYGIKNASFNPITSSIELKNSEKSNIYVIGGCGFGTPIYRLLSKYNLGFSTGILHENDIDYETAKTMSLRLQSEKPFQKISKISFEKALAAVASSDIIIDSGFPIGETNEKNLNLLNYAVEKNKRVITFRKYFNSTMSYCSNKDALIDFILRLEHHHHHH” reads “not soluble”; that for “MIVKTEEELQALKEIGYICAKVRNTMQAATKPGITTKELDNIAKELFEEYGAISAPIHDENFPGQTCISVNEEVAHGIPSKRVIREGDLVNIDVSALKNGYYADTGISFVVGESDDPMKQKVCDVATMAFENAIAKVKPGTKLSNIGKAVHNTARQNDLKVIKNLTGHGVGLSLHEAPAHVLNYFDPKDKTLLTEGMVLAIEPFISSNASFVTEGKNEWAFETSDKSFVAQIEHTVIVTKDGPILTTKIEEE”, “soluble”.
Consider “MIVWSVANQKGGVGKTTTTITLAGLLSQQGKRVLLVDTDPHASLTTYLGYDSDGVPASLFDLFQLREYNEASVKPLILNTDIQGIDLIPAHMSLATLDRVMGNRSGMGLILKRALLALRHVYDYVLIDCPPILGVMMVNALAASDRILIPVQTEFLAMKGLERMVRTLAIMQKSRSREFKVTIVPTMYDKRTRASLQTLNQLKKDYPDKVWTSAVPIDTKFRDASLQRLPASHFAEGSRGVFAYKQLLLFLERLAIDE”, for which the “soluble on expression in E. coli” value was “not soluble”.
In the case of “MIWNEHHECMGRDQLASLQGERLRQMVERIYYNVPFYRNKLQEMGIEPGDIRSIDDLKKLPFTTKQDLRDNYPFGLFAVPQQDIVRFHASSGTTGKSTVVGYTHNDIMMWSEVVARSLTMAGVTKHDIIQVAYGYGLFTGGLGLHYGAEKIGASVIPISGGNTKKQLQLLEDFGSTAIACTPSYAAYLGEAIMEEKLDRSKIKLKAGIFGAEPWTEEMRSQIQQLLGIKAYDIYGLSEVIGPGVSMECSIQHGMHVFEDHFIPEIINPETGEVLPYGELGELVFTAVTKEALPLLRYRTRDLTRLHVERCDCGRTLVRMEKCVGRSDDMLIIRGVNVFPSQVESVLLEMSETKPHYLLVVDRQNNLDTLEIQVEVEDQFFSDEVKELEGLRKRISGNLTSILGLHANVRLVEPGTIERSQGKAQRVVDKRKLNEHKETP”, the “soluble on expression in E. coli” value is reported as “not soluble”.
In the case of “MIYKSIAERLRIRLNSADFTLNSLLPGEKKLAEEFAVSRMTIRKAIDLLVAWGLVVRRHGSGTYLVRKDVLHQTASLTGLVEVLKRQGKTVTSQVLIFEIMPAPPAIASQLRIQINEQIYFSRRVRFVEGKPLMLEDSYMPVKLFRNLSLQHLEGSKFEYIEQECGILIGGNYESLMPVLADRLLARQMKVAEHTPLLRITSLSYSESGEFLNYSVMFRNASEY”, the “soluble on expression in E. coli” value is “not soluble”.
For “MKAARQQAIVDLLLNHTSLTTEALSEQLKVSKETIRRDLNELQTQGKILRNHGRAKYIHRQNQDSGDPFHIRLKSHYAHKADIAREALAWIEEGMVIALDASSTCWYLARQLPDINIQVFTNSHPICHELGKRERIQLISSGGTLERKYGCYVNPSLISQLKSLEIDLFIFSCEGIDSSGALWDSNAINADYKSMLLKRAAQSLLLIDKSKFNRSGEARIGHLDEVTHIISDERQVATSLVTA”, the “soluble on expression in E. coli” value was “soluble”.
As for “MKADHPEDIEDIKELIAQTENEQVEFKETTGQLERGMETLCAFLNGEGGTVLFGITDKGKIIGQEVADVTKRSIAEAINRLEPTANVHVFYIPLPDSSKKIIALHVENSRDNRPFCYKSRPYYRVESVTSAMPQAVYNQLLIIRDEAKYRWELFENPKLSLQDMDENEILKTVRLGIECGRLPENTGNNLSIILEKFGLLVNGVLNNAAAVLFANRELIEYPQCLLRLARFKGTDKMVFMDNQRVQGNLFQLLDSAMTFIFKHLSLSGTTEALEREEHLTIPYKAIREGIINSLCHRQFRTPGGSVGIAIYDDRVEIENPGTFPHGWDMERMKSEHCSEPRNPLIANVLYKRKLLENWGRGISLMTEECRKANLPEPEFKLANGFVILVFRYGTNNHTSTMQVPHKHHISTIQVQSLLNIMEYNTYSVKEMMELLELKNRSYFSKEYLKPAVETGVIEPIFPDQPKSPKQKYRLTEKGKALLEKRLEHHHHHH”, the “soluble on expression in E. coli” value is reported as “soluble”.
With “MKAKLVSLLAQANIKISDQQIQQLINLVNLLNKWNKAYNLTSVRDPQEMLVKHILDSLVVSPYLQGDRFIDVGTGPGLPGLPLAIINPSKQFVLLDSLGKRISFIRNAIRELRLTNVTPVLSRVEEYQPEDKFDGVLSRAFASLKDMTDWCHHLPKENGYFYALKGIYQEDEINELNKKYTIQKVIELSVPELIGERHLIVLRLEHHHHHH”, the “soluble on expression in E. coli” value was “not soluble”.
Consider “MKALLLLVLPWLSPANYIDNVGNLHFLYSELCKGASHYGLTKDRKRRSQDGCPDGCASLTATAPSPEVSAAATISLMTDEPGLDNPAYVSSAEDGQPAISPVDSGRSNRTRARPFERSTIRSRSFKKINRALSVLRRTKSGSAVANHADQGRENSENTTAPEVFPRLYHLIPDGEITSIKINRVDPSESLSIRLVGGSETPLVHIIIQHIYRDGVIARDGRLLPGDIILKVNGMDISNVPHNYAVRLLRQPCQVLWLTVMREQKFRSRNNGQAPDAYRPRDDSFHVILNKSSPEEQLGIKLVRKVDEPGVFIFNVLDGGVAYRHGQLEENDRVLAINGHDLRYGSPESAAHLIQASERRVHLVVSRQVRQRSPDIFQEAGWNSNGSWSPGPGERSNTPKPLHPTITCHEKVVNIQKDPGESLGMTVAGGASHREWDLPIYVISVEPGGVISRDGRIKTGDILLNVDGVELTEVSRSEAVALLKRTSSSIVLKALEVKEYEPQEDCSSPAALDSNHNMAPPSDWSPSWVMWLELPRCLYNCKDIVLRRNTAGSLGFCIVGGYEEYNGNKPFFIKSIVEGTPAYNDGRIRCGDILLAVNGRSTSGMIHACLARLLKELKGRITLTIVSWPGTFL”, for which the “soluble on expression in E. coli” value is listed as “soluble”.
Consider “MKCKDDMSAVLTAEQALKLVGEMFVYHMPFNRALGMELERYEKEFAQLAFKNQPMMVGNWAQSILHGGVIASALDVAAGLVCVGSTLTRHETISEDELRQRLSRMGTIDLRVDYLRPGRGERFTATSSLLRAGNKVAVARVELHNEEQLYIASATATYMVGLEHHHHHH”, for which the “soluble on expression in E. coli” value was “soluble”.
With “MKDELIKKLSRPEWDFQYDSEKEVLRIEQKDSKKGINVSLPGVVAKWEVNKEKAIEEVAYYVQEALIAMHKEENSGAKILPVIRSTSFPKQAEEGNPFIMTDHTAETRIYYALDSNKTYRLIDERLLQKLELTEQQVREMALFNARSLGYEFKQDTVAGNTFYFLNTNDGYDATRILNESLLQSMREKISGDMVVAVPHQDVLIIADIVNEIGYDIIAQMTMKFFAEGHVPITSLSFVYEDGEFEPIFILAKNRKKTDGKEKG”, the “soluble on expression in E. coli” value is reported as “not soluble”.
The same measure for “MKDFNQRFRDLHKLRQRARKENHEQVVEEDRRSKLPKNHEAKKERDQWQVKELQDRKAAEDKGLDYERVRSLEMSADVTEKLEQKRKRKKNPDQGFTSYEDMTLRQHTRLTAALDPDLDSYKKMRECVGGEQFYPTADTLIHGNHYPTTAAMDKLTKDVHGQVKRREQYHRRRLYDPDAPIDYINEKNKKFNKKLDKYYGKYTEDIKDDLERGTAI”: “not soluble”.
In the case of “MKDVILVIYSLIKMTKLRSCPLDDCNSSETYFQLDKHLKNEHDGLVLLMVDPQSQWRCEQMKRHVEYVDLMSATEIPHIAEVVHHQLPYIDTLIIFRCLS”, the “soluble on expression in E. coli” value is given as “soluble”.
The result for “MKEESEESSMDHHSYTTEEVAKRLKVSKLTVYDLIKKGELPSYRVGRQMRIDAADLDQYIKQMKTGKVQVNPVKNDGSSILNTCIISGQELTLDMLAKRIENRLPSSNVLRAYQGSLTSLVKMYQGEGSIVSLHLFDGETGTYNIPYVKRILVGQPCLMINLLSRNVGFYVQKGNPKKIKTWADISGSTIKFVNREKGSGIRVLVDEQLRILKLNKADISGYEWEESNHLGVATQVANGKADVGVGSEKFSQIVNVDFIPIMKEQYDLVILKNKENEELIEVVKDILQSEEFHNELNAIGGYDITKTGQIVYEIK” reads “not soluble”; that for “MKEFSIMIQGTISSWTEDTMSLLTVEKLGHTFGDRTLFKDVSMRLLAGEHVGLVGANGVGKSTFMNIITGQLIHDQGRVEWTPGTHYGYLDQHTVLTPGRTIRDVLADAFLPLFEKEKALNEVTEKMGTATPEELEELLEQMAEIQDALEAGGFYLLYMKIEEAARGLGIDAIGLDRDVSALSGGQRTKVLLAKLLLEQPEVLLLDEPTNYLDVEHIHWLTNYLKEYPHAFLLISHDTEFMNKCVDVIFHLEFTKMTRYTATYEKFLELAEINKNQHINAYEKQREFIKKQEDFIAKNKARYSTTGRAKSRQKQLDRMELIDRPETAIKPEFSFKESRASSRFVFEGENVEIGYTHPLLPKLSMTIERGEKIAIVGCNGVGKSTLLKTILGKIKPLSGKTSLGDFLEPAYFEQEVKADNITPIDDVWNTFPGLDQHQIRAMLAKCGLKNEHISRPLSQLSGGEQAKVRLCKLMGEESNWLLFDEPTNHLDVTAKAELKKAMKAYKGTILLVCHEPDFYEDWITKVWDVEEWSQNSK”, “not soluble”.
For the sequence “MKEIKVNELTDNLFETISKEWMLVTAGTKDKFNTMTANWGGAGFLWNRPVAFIFIRPERYTFDFIEQNDYLTLSFLGEEHKEIHKICGSKSGRDMDKVKATGLSPLFTENGSITFEQARLTFECKKLYADLIKPGNFIDKSITDRWYGESHGGFHKMYVVEIVNVLSR”, the “soluble on expression in E. coli” value is reported as “soluble”.
Consider “MKEKEHQSIEWKESWQDEYLKWICGYANAYGGTIYIGTDDDGNVVGIDNARDLLERIPNKITDTMGIIVDVNLLYKGELEYLQIIVDKYPSLISFRGKYYYRSGSTMREITGKELERALLKTQGRTWDGVPLPKLTVADLKQDAIQLFKDKAVKRGRLTKEEVSVEDTILMDNLHLIDEDGYLIRAAMLAFYKDPEKWVTGSYIKIGYFGKSDSDLVYQDEVHGPLIEQVDKTVDLVYTKYMKALIDYEGVQRIEQFMFHKDAFREILLNAVVHKDYSSCNPIQISVYEDKIYIWNDGEMPPNLDSTDKLFMKHSSKPYNPKLANVFFKSGMIEAWGRGFEKIREACALYDGPLPEYEINEAGIMVLCKACDKYLGLLRNDGQHHGQCDQEGDHDEEQDIMRQIIAFCMEPKTASEIMQKFNLERSYFRRHYLNKMLKTGKLQRTEPDKPKSKNQKYYS”, for which the “soluble on expression in E. coli” value is given as “not soluble”.
With “MKEKIPFYNEKEFHDMMKKTKKGTFSGWYIIDKDNKSVEFSGNFNRQFKLNKPVIPVNTEYVTRKEFNEYKDSNDQRLTKIETTLAAQGEQIRIQGEQIKELQIEQKAQGETLKLILQTLQKMSDRLNKMDVRLDKLESKLEHHHHHH”, the “soluble on expression in E. coli” value is recorded as “not soluble”.
In the case of “MKELNDLEKKYNAHIGVYALDTKSGKEVKFNSDKRFAYASTSHAINSAILLEQVPYNKLNKKVHINKDDIVAYSPILEKYVGKDITLKALIEASMTYSDNTANNKIIKEIGGIKKVKQRLKELGDKVTNPVRYEIELNYYSPKSKKDTSTPAAFGKTLNKLIANGKLSKENKKFLLDLMLNNKSGDTLIKDGVPKDYKVADKSGQAITYASRNDVAFVYPKGQSEPIVLVIFTNKDNKSDKPNDKLISETAKSVMKEF”, the “soluble on expression in E. coli” value is “soluble”.
